This is an account of results in US20110189730 (published 2011).

The target of data set [1] is T1, Sin Nombre hantavirus nucleocapsid protein (N) (Sin Nombre hantavirus) (UniProt Q89462).
T1 sequence: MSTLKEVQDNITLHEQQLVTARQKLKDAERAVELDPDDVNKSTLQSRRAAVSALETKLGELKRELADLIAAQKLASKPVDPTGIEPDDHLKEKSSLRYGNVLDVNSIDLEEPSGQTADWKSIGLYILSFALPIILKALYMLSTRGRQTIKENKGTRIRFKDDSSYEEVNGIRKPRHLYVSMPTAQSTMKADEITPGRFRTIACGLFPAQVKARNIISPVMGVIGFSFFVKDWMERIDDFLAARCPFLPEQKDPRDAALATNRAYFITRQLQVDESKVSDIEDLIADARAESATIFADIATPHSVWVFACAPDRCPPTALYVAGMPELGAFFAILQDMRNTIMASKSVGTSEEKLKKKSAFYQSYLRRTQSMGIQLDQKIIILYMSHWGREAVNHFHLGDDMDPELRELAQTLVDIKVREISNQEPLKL
As to the kind of experiment: filter. The settings on record: 5' m7G cap.

For data set [2], the target named is T2, Sin Nombre hantavirus nucleocapsid protein (N) (Sin Nombre hantavirus, UniProt Q89462 SEQ:1-428).
T2 sequence: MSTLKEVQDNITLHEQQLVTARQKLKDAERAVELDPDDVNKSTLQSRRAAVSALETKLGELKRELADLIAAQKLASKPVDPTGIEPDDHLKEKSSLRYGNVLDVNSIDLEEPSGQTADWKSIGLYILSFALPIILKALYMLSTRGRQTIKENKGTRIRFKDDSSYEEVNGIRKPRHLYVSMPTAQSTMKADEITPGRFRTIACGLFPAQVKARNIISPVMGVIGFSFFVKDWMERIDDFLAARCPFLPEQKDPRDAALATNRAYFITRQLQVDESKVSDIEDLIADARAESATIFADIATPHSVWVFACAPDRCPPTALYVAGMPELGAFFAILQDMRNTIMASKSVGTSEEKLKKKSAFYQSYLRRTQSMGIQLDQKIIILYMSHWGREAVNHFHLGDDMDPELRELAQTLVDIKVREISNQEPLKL
Briefly: filter. The settings on record: tags: C-terminal octahistidine tag, expressed in E. coli; label: 32P-CTP.

One may read the Kd as the constant that tells how readily two partners part at equilibrium. Molecule capped TriEx 5'-terminal decamer gave a Kd in data set [1] of 130 nM.

B1: m7GUCUCC capped hexamer (ssRNA)
RNA: GUCUCC
modifications: 5' m7G cap
For the molecule B1, in data set [2], binding was put at a Kd of 125 nM.

B2: m7… capped decamer (ssRNA)
RNA: GUCUCUCCCA
modifications: 5' m7G cap
Molecule B2 gave a dissociation constant Kd in data set [2] of approximately 130 nM.
